The values that follow come from patent US7387779B2, “Anti-angiogenic proteins and fragments and methods of use thereof” (Beth Israel Deaconess Medical Center, priority 1998, dated 2008).

For this test, the system named is C-PAE cells. Briefly: Annexin V-FITC apoptosis assay. In kind it is cell-based, bovine. To be noted: for Apo (Annexin V-FITC assay): Table 4; for IC50, induction of endothelial cell apoptosis: 10% FBS. The method, then:
Fifty thousand C-PAE cells were added to each well of a 6-well tissue culture plate in DMEM supplemented with 10% FBS for 12 hours. Fresh medium together and either 5 μg/ml Arresten or 40 ng/ml TNFα (positive control) was added at 2, 4 and 6 hour time points. Control wells received an equal of volume of PBS. Detached cells and adherent cells were pooled together and centrifuged at 1500 rpm. Cells were washed with binding buffer (Clontech, Palo Alto, Calif., USA), and phosphatidyl-serine (PS) externalization, an indicator of apoptosis, was measured by labeling with FITC-labeled annexin V (Clontech) according to manufacturer's instructions. Annexin-FITC labeled cells were counted using a FACStar Plus flow cytometer (Becton-Dickinson, Waltham, Mass., USA). For each treatment, 10,000 cells were counted and stored. […] Relative to controls, the percentage of annexin-V-stained (apoptotic) cells increased to about 27% at 2 hours, and near 20% at 4 and 6 hours for the positive control, TNFα. For Arresten-treated cells, the percentage of apoptotic cells was about 18% at 2 hours, and about 23% at 4 and 6 hours.
Annexin V-FITC Labeling. In order to establish apoptosis as the potential mode of action for Canstatin, Annexin V-FITC was used to label externalized phosphatidylserine (PS), to assess apoptotic cells. 0.5×10^6 C-PAE cells, PC-3, 786-O and HEK 293 cells were added to each well of a 6 well tissue culture plate in 10% FBS supplemented DMEM (BioWhittaker, Walkersville, Md., USA) overnight. The next day, fresh medium was added to all wells together with 40 ng/ml TNF-α (positive control) or 15 μg/ml Canstatin. Control cells received an equal volume of PBS. After 24 hours of treatment, medium containing detached cells was collected and attached cells were trypsinized and combined with detached cells and centrifuged at 3,000×g. Cells were then washed and phosphatidyl-serine externalization (an early apoptotic indicator) was measured by labeling with FITC-labeled annexin V (Clontech, Palo Alto, Calif., USA) according to the manufacturer's instructions. Annexin V-FITC-labeled cells were counted using a FAC Star Plus flow cytometer (Becton-Dickenson, Waltham, Mass., USA). For each treatment 15,000 cells were counted and stored in listmode.
C-PAE cells (0.5×10^6 per well) were seeded onto a 6-well plate in 10% FCS supplemented DMEM. The next day, fresh medium containing 10% FCS was added with either 80 ng/ml of TNF-α (positive control) or Tumstatin ranging from 0.02 to 20 μg/ml. Control cells received an equal volume of PBS. After 18 hours of treatment, medium containing floating cells was collected, and attached cells were trypsinized and centrifuged together with floating cells at 3,000×g. The cells were then washed in PBS and resuspended in binding buffer (10 mM HEPES/NaOH, pH 7.4, 140 mM NaCl, 2.5 mM CaCl2). Annexin V-FITC (Clontech, Palo Alto, Calif., USA) was added to a final concentration of 150 ng/ml, and the cells were incubated in the darkness for 10 minutes. The cells were washed again in PBS and resuspended in binding buffer. Annexin V-FITC labeled cells were counted using a FACStar Plus flow cytometer (Becton-Dickinson, Waltham, Mass., USA). For each treatment, 15,000 cells were counted and stored in listmode.
Apoptosis was measured by Annexin V-FITC assay, using the ApoAlert kit (Clontech, Palo Alto, Calif., USA). Propidium iodide was used to stain the nuclei of cells that had died by ways other than apoptosis.
The assay was performed as described above, by treating C-PAE cells with Tumstatin-44-131 for 18 hours. Control cells received PBS.

B1: Tumstatin: NC1 domain of the α3 chain of type IV collagen, residues 1-244 (SEQ ID NO:10) (protein, listed as Homo sapiens)
chain: GLKGKRGDSGSPATWTTRGFVFTRHSQTTAIPSCPEGTVPLYSGFSFLFVQGNQRAHGQDLGTLGSCLQRFTTMPFLFCNVNDVCNFASRNDYSYWLSTPALMPMNMAPITGRALEPYISRCTVCEGPAIAIAVHSQTTDIPPCPHGWISLWKGFSFIMFTSAGSEGTGQALASPGSCLEEFRASPFLECHGRGTCNYYSNSYSFWLASLNPERMFRKPIPSTVKAGELEKIISRCQVCMKKRH
In the case of B1, the “Apo (Annexin V-FITC assay)” value was 10 µg. Further, the annexin fluorescence result (2 μg/ml, 18 hours) is “mild shift”. For the same molecule, the annexin fluorescence result (20 μg/ml, 18 hours) is listed as “distinct shift of annexin fluorescence peak”. The annexin fluorescence result (concentrations below 0.2 μg/ml) is “did not demonstrate any annexin V positivity”.

B2: Tum-1: residues 54 to 244 of Tumstatin, lacking the N-terminal 53 amino acids (SEQ ID NO:22) (protein)
chain: QRAHGQDLGTLGSCLQRFTTMPFLFCNVNDVCNFASRNDYSYWLSTPALMPMNMAPITGRALEPYISRCTVCEGPAIAIAVHSQTTDIPPCPHGWISLWKGFSFIMFTSAGSEGTGQALASPGSCLEEFRASPFLECHGRGTCNYYSNSYSFWLASLNPERMFRKPIPSTVKAGELEKIISRCQVCMKKRH
modifications: Tum-1 (Tumstatin N-53) (amino acids 54-244 of SEQ ID NO10)
Take B2: the “IC50, induction of endothelial cell apoptosis” value is given as “about 5 μg/ml” and the “Apo (Annexin V-FITC assay)” value amounted to 5 µg.

B3: Can-1: N-terminal 114 amino acids of full-length Canstatin (protein, listed as Homo sapiens)
chain: VSIGYLLVKHSQTDQEPMCPVGMNKLWSGYSLLYFEGQEKAHNQDLGLAGSCLARFSTMPFLYCNPGDVCYYASRNDKSYWLSTTAPLPMMPVAEDEIKPYISRCSVCEAPAIA
Regarding B3, the induction of apoptosis result by setting is: (concentrations above 1 μg/ml) “induced apoptosis”; (concentrations of less than 1 μg/ml) “most potent in inducing apoptosis”.

B4: Canstatin: NC1 domain of the α2 chain of Type IV collagen (SEQ ID NO:6) (protein, listed as Homo sapiens)
chain: VSIGYLLVKHSQTDQEPMCPVGMNKLWSGYSLLYFEGQEKAHNQDLGLAGSCLARFSTMPFLYCNPGDVCYYASRNDKSYWLSTTAPLPMMPVAEDEIKPYISRCSVCEAPAIAIAVHSQDVSIPHCPAGWRSLWIGYSFLMHTAAGDEGGGQSLVSPGSCLEDFRATPFIECNGGRGTCHYYANKYSFWLTTIPEQSFQGSPSADTLKAGLIRTHISRCQVCMKNL
As to B4, the induction of apoptosis entry is reported as “specifically induce apoptosis of endothelial cells” (15 μg/ml Canstatin, 24 hours) and “induced apoptosis” (concentrations above 1 μg/ml).

B5: endostatin: tumor associated angiogenesis inhibitor used as comparator (protein, UniProt P39060 1572-1754, looked up)
Endostatin: HSHRDFQPVLHLVALNSPLSGGMRGIRGADFQCFQQARAVGLAGTFRAFLSSRLQDLYSIVRRADRAAVPIVNLKDELLFPSWEALFSGSEGPLKPGARIFSFDGKDVLRHPTWPQKSVWHGSDPNGRRLTESYCETWRTEAPSATGQASSLLGGRLLGQSAASCHHAYIVLCIENSFMTASK
modifications: Endostatin
For B5, the “IC50, induction of endothelial cell apoptosis” value was “no activity”.

B6: Tumstatin-44-131: residues 44 to 131 of full-length Tumstatin (SEQ ID NO:33) (protein)
chain: FSFLFVQGNQRAHGQDLGTLGSCLQRFTTMPFLFCNVNDVCNFASRNDYSYWLSTPALMPMNMAPITGRALEPYISRCTVCEGPAIAI
modifications: Tumstatin-45-132 (amino acids 45-132 of SEQ ID NO10)
With B6, the “Apo (Annexin V-FITC assay)” value is “active”. Moreover, the annexin fluorescence entry (5 μg/ml Tumstatin-44-131, 18 hours) is given as “distinct shift of the fluorescence intensity peak”.
